Data taken from US20170106051A1 (BAYLOR RESEARCH INSTITUTE, published 2017).

Assays:
human DCIR = target: T1, human DCIR (human, UniProt Q9UMR7 1-237); assay: flow cytometry on purified human blood pDCs, detection with anti-human IL-10
T1 construct: whole, on cells; The assay was on primary human blood DCs
T1 sequence (looked up): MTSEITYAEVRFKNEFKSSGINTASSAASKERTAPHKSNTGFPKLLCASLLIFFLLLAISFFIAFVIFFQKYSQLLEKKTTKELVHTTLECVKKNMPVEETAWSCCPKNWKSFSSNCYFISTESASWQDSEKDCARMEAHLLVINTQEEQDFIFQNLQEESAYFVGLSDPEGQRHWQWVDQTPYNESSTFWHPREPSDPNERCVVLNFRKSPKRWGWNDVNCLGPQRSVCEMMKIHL
Method: (§1) The ability of antibody-IL-10 fusion proteins to bind to human DCs was measured. Both myeloid DC (mDCs) and plasmacytoid DCs (pDCs) were purified from human blood. DCs were incubated for 20 min in ice in the presence of different concentrations of recombinant fusion proteins of antibody and IL-10 (FIG. 1). After vigorous washing, DCs were further stained with anti-human IL-10 to detect surface bound antibody-IL-10 fusion proteins using flow cytometry.

human CD40 = target: T2, human CD40 (human, UniProt P25942 21-277); assay: flow cytometry on purified human blood mDCs, detection with anti-human IL-10
T2 construct: whole, on cells; The assay was on primary human blood DCs; also called hCD40
T2 sequence (P25942 21-277): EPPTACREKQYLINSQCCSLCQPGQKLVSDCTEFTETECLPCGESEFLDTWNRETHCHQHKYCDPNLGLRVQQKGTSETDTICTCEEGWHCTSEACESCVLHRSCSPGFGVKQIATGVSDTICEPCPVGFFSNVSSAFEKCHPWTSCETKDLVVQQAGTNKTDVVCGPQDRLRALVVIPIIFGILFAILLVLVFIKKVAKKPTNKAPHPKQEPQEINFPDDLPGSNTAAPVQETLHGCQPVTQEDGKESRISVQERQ
Method: as §1

B1: mAnti-DCIR_9E8_H-LV-hIgG4H-C-Flex-v1-hIL-10 antibody (antibody)
heavy: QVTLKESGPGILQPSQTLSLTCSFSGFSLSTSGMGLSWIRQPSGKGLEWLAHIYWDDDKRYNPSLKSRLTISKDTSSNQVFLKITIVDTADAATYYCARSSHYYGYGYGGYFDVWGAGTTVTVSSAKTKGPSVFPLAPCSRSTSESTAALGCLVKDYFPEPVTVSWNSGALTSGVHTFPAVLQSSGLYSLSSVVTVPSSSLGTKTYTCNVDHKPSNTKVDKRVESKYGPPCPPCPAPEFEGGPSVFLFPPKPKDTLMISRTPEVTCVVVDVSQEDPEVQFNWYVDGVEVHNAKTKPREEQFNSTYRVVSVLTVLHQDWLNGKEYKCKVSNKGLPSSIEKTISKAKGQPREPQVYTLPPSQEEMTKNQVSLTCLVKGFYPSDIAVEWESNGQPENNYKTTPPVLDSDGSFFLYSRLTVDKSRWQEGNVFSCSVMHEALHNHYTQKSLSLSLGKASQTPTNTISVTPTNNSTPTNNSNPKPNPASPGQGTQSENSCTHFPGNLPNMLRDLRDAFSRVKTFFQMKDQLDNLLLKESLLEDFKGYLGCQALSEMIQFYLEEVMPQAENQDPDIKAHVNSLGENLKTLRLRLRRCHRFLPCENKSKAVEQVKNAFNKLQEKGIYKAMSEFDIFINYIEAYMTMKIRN
light: NIVLTQSPASLAVSLGQRATISCRASESIHSYGNSFLHWYQQKPGQPPKLLIYLASNLESGVPARFSGSGSRTDFTLTIDPVEADDAATYYCQQNNEDPWTFGGGTKLEIKRTVAAPSVFIFPPSDEQLKSGTASVVCLLNNFYPREAKVQWKVDNALQSGNSQESVTEQDSKDSTYSLSSTLTLSKADYEKHKVYACEVTHQGLSSPVTKSFNRGEC
notes: Mouse/human chimeric IgG4 kappa antibody with human IL-10 fused through a linker to the C-terminus of the heavy chain; also called anti-DCIR (9E8)-IL-10; Anti-DCIR-9E8-hIL-10
B1: binds (human DCIR).

B2: manti-hCD40_24A3.3F1_H-LV-hIgG4H-C-Flex-v1-hIL-10 antibody (antibody)
heavy: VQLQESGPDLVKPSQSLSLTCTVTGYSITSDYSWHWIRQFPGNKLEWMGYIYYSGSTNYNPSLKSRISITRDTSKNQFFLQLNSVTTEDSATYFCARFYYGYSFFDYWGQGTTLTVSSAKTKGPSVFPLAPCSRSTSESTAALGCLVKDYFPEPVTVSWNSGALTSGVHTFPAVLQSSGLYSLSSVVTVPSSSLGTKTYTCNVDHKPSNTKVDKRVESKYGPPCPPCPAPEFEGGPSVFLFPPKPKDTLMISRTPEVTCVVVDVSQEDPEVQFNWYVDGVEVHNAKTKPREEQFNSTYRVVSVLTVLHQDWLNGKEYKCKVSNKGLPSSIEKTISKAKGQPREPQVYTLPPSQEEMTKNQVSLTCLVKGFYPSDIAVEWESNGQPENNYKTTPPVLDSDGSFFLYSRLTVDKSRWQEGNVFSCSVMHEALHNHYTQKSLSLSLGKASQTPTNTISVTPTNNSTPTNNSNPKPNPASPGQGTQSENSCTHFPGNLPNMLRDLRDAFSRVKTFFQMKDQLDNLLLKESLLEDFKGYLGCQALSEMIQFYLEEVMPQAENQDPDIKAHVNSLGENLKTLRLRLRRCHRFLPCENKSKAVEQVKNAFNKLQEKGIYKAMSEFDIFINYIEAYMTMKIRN
light: QIVLTQSPAFMSASPGEKVTMTCSASSSVSYMHWYQQKSGTSPKRWIYDTSKLASGVPARFSGSGSGTSYSLTISSMEAEDAATYYCQQWSSNPLTFGAGTKLEIKRTVAAPSVFIFPPSDEQLKSGTASVVCLLNNFYPREAKVQWKVDNALQSGNSQESVTEQDSKDSTYSLSSTLTLSKADYEKHKVYACEVTHQGLSSPVTKSFNRGECAS
notes: Mouse/human chimeric IgG4 kappa antibody with human IL-10 fused through a linker to the C-terminus of the heavy chain; also called anti-CD40 (24A3)-IL-10; Anti-CD40-24A3-hIL-10
B2: binds (human CD40).
